Tested on: MBP expression
Experiment: HD-DoE 8-factor model (stage 4), optimized for maximum expression of MBP
Format: cell-based, human
Conditions: model optimized for MBP at 274; FIG. 6

B1: NT-3: neurotrophin-3, a Trk C pathway agonist (protein, UniProt P20783 139-257, looked up)
Neurotrophin-3: YAEHKSHRGEYSVCDSESLWVTDKSSAIDIRGHQVTVLGEIKTGNSPVKQYFYETRCKEARPVKNGCRGIDDKHWNSQCKTSQTYVRALTSENNKLVGWRWIRIDTSCVCALSRKIGRT
factor contribution, positive impact on MBP expression: 12.1
